Experiments:
[1] = test system: Zif268 finger 3 Asp2Ala D2A in finger 3 (helix position 2); conditions: phage ELISA; PBS, 50 uM ZnCl2, 20 C
[2] = test system: F2-Arg finger 3 Asp2Ala D2A in finger 3 (helix position 2) (Artificial Sequence); conditions: phage ELISA; PBS, 50 uM ZnCl2, 20 C

Sequence | binding signal (fold lower affinity than wild type) [1] | binding signal (fold lower affinity than parent F2-Arg) [2]
GCGTGGGCG (double strand) [Zif268 consensus site] | 4 | 
GCGGTGGCG (double strand) [F2-Arg consensus site] |  | 4

Reference: US20040253623
